From patent publication US20180177166 come the findings set out here.

Experiment in all cases: cell_activity
For data set [1], the system named is ssMYF5 1.1 TALEN right (synthetic (Xanthomonas TALE-FokI)?). Particulars: TALEN pair with P3, pig fibroblasts; site printed on top strand.
In data set [2] the test system is ssMYOD 1.2 TALEN right (synthetic (Xanthomonas TALE-FokI)?). Conditions: TALEN pair with P1, pig fibroblasts.
The test system of data set [3] is ssMYOD 1.2 TALEN left (synthetic (Xanthomonas TALE-FokI)?). Conditions: TALEN pair with P2, triplex transfection with HDR oligo, pig fibroblasts, HindIII RFLP.
Data set [4] deals with ssMYF6 1.2 TALEN right (synthetic (Xanthomonas TALE-FokI)?). Conditions: TALEN pair with P5, pig fibroblasts; site printed on top strand.
Data set [5] has as its system ssMYF6 1.2 TALEN left (synthetic (Xanthomonas TALE-FokI)?). Conditions: TALEN pair with P6, triplex transfection with HDR oligo, pig fibroblasts, HindIII RFLP.
In data set [6] the test system is ssMYF5 1.1 TALEN left (synthetic (Xanthomonas TALE-FokI)?). Particulars: TALEN pair with P4, triplex transfection with HDR oligo, pig fibroblasts, HindIII RFLP.

Regarding “AAATCCACCACCATGG (double strand) [ssMYF5 1.1 right half-site]”, the activity (% HDR alleles) in data set [1] turned out to be 31.

As for “AGGCTGCCCAAGGTGG (double strand) [ssMYOD 1.2 right half-site]”, the activity (% HDR alleles) in data set [2] came out at 14.

In turn, “CAAGAGGTGCACCAC (double strand) [ssMYOD 1.2 left half-site]” came in with an activity (% HDR alleles) in data set [3] of 14.

Sequence “GACAGCAGTGGAGAGGA (double strand) [ssMYF6 1.2 right half-site]” registered an activity (% HDR alleles) in data set [4] of 36.

Turning to “GCCAGGACCAAATGCC (double strand) [ssMYF6 1.2 left half-site]”, the activity (% HDR alleles) in data set [5] is 36.

In data set [6], “GCCTCATGTGGGCCTG (double strand) [ssMYF5 1.1 left half-site]” gave an activity (% HDR alleles) of 31.
